# Numbered stars: 1 amine (or outer) side, 2 acyl side, 3 side chain; on linkers, the order of the positions; unused ones are H or OH. Square brackets hold non-standard residues; d marks the D form. Ends that are not written are not given here. * marks the point of attachment. ξ: configuration not given here. Apc(Ae) = 4-amino-1-(2-amino-ethyl)-piperidine-4-carboxylic acid, O=C(C1(N[*:1])CCN(CCN[*:3])CC1)[*:2]; Apc(Et) = 4-amino-1-ethyl-piperidine-4-carboxylic acid, CCN1CCC(N[*:1])(C(=O)[*:2])CC1; Apc(Me) = 4-amino-1-methyl-piperidine-4-carboxylic acid, CN1CCC(N[*:1])(C(=O)[*:2])CC1; Pro(trans-4-NH2) = O=C([C@@H]1C[C@@H](N[*:3])CN1[*:1])[*:2]; Sni = (S)-nipecotic acid, O=C([C@H]1CCCN([*:1])C1)[*:2]; Eat = 2,3-dihydro-1H-indole-2-carboxylic acid; Tyr(3-I) = N[C@@H](Cc1ccc(O)c(I)c1)C(=O)O; NMeR = CN[C@@H](CCCNC(=N)N)C(=O)O; dDap(Me2) = CN(C)C[C@@H](N)C(=O)O; Hyp = O=C(O)[C@@H]1C[C@@H](O)CN1; Tic = O=C(O)[C@@H]1Cc2ccccc2CN1; Gly(cPr) = N[C@H](C(=O)O)C1CC1; Aoc(2) = CCCCCC[C@H](N)C(=O)O; NMeL = CN[C@@H](CC(C)C)C(=O)O; Chg = N[C@H](C(=O)O)C1CCCCC1; Tle = CC(C)(C)[C@H](N)C(=O)O; ξαMeL = CC(C)CC(C)(N)C(=O)O; Octanoyl = CCCCCCCC(=O)*; Thz = O=C(O)[C@@H]1CSCN1; Api = NC1(C(=O)O)CCNCC1; Aze = O=C(O)[C@@H]1CCN1; dAze = O=C(O)[C@H]1CCN1; Deg = CCC(N)(CC)C(=O)O; Oct = not defined here; Aib = CC(C)(N)C(=O)O; GABA = NCCCC(=O)O
# T1: natriuretic peptide receptor-B (human)
# T1 chain: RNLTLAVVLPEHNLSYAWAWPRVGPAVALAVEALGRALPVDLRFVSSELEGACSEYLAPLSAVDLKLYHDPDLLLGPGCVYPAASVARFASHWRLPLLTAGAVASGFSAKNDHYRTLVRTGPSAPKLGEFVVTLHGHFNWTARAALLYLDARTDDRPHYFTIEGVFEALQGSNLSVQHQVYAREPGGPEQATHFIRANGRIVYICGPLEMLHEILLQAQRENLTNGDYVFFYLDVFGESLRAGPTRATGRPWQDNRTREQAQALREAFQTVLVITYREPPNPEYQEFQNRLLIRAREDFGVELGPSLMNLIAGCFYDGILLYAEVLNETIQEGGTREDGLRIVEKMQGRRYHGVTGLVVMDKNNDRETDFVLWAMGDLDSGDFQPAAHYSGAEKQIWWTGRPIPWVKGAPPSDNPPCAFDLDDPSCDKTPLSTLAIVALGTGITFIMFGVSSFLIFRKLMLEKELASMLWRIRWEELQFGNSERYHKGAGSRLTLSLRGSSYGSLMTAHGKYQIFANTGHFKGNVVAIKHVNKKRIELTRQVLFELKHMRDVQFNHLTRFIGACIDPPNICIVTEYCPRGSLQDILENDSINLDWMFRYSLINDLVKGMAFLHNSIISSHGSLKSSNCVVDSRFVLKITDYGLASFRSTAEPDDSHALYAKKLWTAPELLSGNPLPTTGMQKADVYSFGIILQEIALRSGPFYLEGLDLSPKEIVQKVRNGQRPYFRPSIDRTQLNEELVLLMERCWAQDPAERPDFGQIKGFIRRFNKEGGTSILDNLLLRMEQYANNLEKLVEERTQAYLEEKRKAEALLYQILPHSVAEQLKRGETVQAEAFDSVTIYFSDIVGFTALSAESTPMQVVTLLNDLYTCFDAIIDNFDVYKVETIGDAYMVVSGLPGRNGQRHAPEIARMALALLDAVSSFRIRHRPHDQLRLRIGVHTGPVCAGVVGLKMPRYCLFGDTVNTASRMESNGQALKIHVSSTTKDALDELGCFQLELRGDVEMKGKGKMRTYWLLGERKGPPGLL
# Biological target: T1, natriuretic peptide receptor-B
# Assay: cell-based or functional assay
row,"EC50 group, cGMP in GTM-3 cells",Binder
1,≤ 5 µM,Octanoyl-[Sni]F[dL]L[Hyp][NMeL]VRI-NH2 [JAL-1399]
2,≤ 15 µM,XXFGLKLDRI (HELM PEPTIDE1{[CCCCCC(=O)[*:2]].[O=C(Cn1cccc(N[*:1])c1=O)[*:2]].F.G.L.K.L.D.R.I.[am]}$$$$V2.0; SMILES CCCCCC(=O)Nc1cccn(CC(=O)N[C@@H](Cc2ccccc2)C(=O)NCC(=O)N[C@@H](CC(C)C)C(=O)N[C@@H](CCCCN)C(=O)N[C@@H](CC(C)C)C(=O)N[C@@H](CC(=O)O)C(=O)N[C@@H](CCCNC(=N)N)C(=O)N[C@H](C(N)=O)[C@@H](C)CC)c1=O) [JAL-0652]
3,≤ 1 µM,Octanoyl-[Sni]F[dDap(Me2)]L[Pro(trans-4-NH2)][NMeL]VRI-NH2 [JAL-1405]
4,≤ 1 µM,Octanoyl-[Sni]F[dDap(Me2)]L[Pro(trans-4-NH2)][NMeL]VRI-NH2 [JAL-1403]
5,≤ 1 µM,"Octanoyl-AFLL[Hyp][NMeL]DR[ξαMeL]-NH2 (also: lower-case ala, leu: meaning not given here) [JAL-1414]"
6,≤ 5 µM,Octanoyl-[dA]F[dL]L[Hyp][NMeL]DR[Aib]-NH2 [JAL-1413]
7,≤ 15 µM,"Octanoyl-AFLL[Hyp][NMeL][Chg]RI-NH2 (also: lower-case ala, leu: meaning not given here) [JAL-1421]"
8,≤ 5 µM,"Octanoyl-AFRL[Hyp][NMeL]DPI-NH2 (also: lower-case ala, arg: meaning not given here) [JAL-1434]"
9,≤ 15 µM,"Octanoyl-AFLL[Hyp][NMeL][Gly(cPr)]RI-NH2 (also: lower-case ala, leu: meaning not given here) [JAL-1424]"
10,≤ 1 µM,Octanoyl-[dA]F[Apc(Me)]M[dE]L[Hyp][NMeL]DRI-NH2 [JAL-1406]
11,≤ 5 µM,Octanoyl-[Sni]F[dDap(Me2)]L[Hyp][NMeL]VRI-NH2 [JAL-1402]
12,≤ 15 µM,Octanoyl-[dA]F[dR]L[Hyp][Thz]DRI-NH2 [JAL-1395]
13,≤ 1 µM,"[Tyr(3-I)][Aoc(2)]AFRL[Hyp][NMeL]DRI-NH2 (also: lower-case ala, arg: meaning not given here) [JAL-1430]"
14,≤ 5 µM,"Octanoyl-AFLL[Hyp][NMeL]D[dAze]I-NH2 (also: lower-case ala, leu: meaning not given here) [JAL-1437]"
15,≤ 1 µM,[Oct][Sni]F[dDap(Me2)]L[Hyp][NMeL]DRI-NH2 (reading uncertain; also: printed as Oct-Sni-Phe-dap(Me2)-Leu-Hyp-Nml-Asp-Arg-Ile-NH2) [JAL-1429]
16,≤ 15 µM,"Octanoyl-AFLL[Hyp][NMeL][Tle]RI-NH2 (also: lower-case ala, leu: meaning not given here) [JAL-1420]"
17,≤ 1 µM,Octanoyl-[Sni]F[dL]L[Pro(trans-4-NH2)][NMeL]VRI-NH2 [JAL-1401]

row,"EC50 group, cGMP in GTM-3 cells",Binder
1,≤ 5 µM,Octanoyl-[dA]F[dR]L[Hyp][Tic]DRI-NH2 [JAL-1396]
2,≤ 15 µM,Octanoyl-[Sni]F[dDap(Me2)]L[Hyp][NMeL]VRI-NH2 [JAL-1400]
3,≤ 5 µM,Octanoyl-[Sni]FLL[Hyp][NMeL]DPI-NH2 (also: lower-case leu: meaning not given here) [JAL-1436]
4,≤ 15 µM,XXFGLKLDRI (HELM PEPTIDE1{[CCCCCC(=O)[*:2]].[O=C([C@H]1CC[C@H](CN[*:1])CC1)[*:2]].F.G.L.K.L.D.R.I.[am]}$$$$V2.0; SMILES CCCCCC(=O)NC[C@H]1CC[C@H](C(=O)N[C@@H](Cc2ccccc2)C(=O)NCC(=O)N[C@@H](CC(C)C)C(=O)N[C@@H](CCCCN)C(=O)N[C@@H](CC(C)C)C(=O)N[C@@H](CC(=O)O)C(=O)N[C@@H](CCCNC(=N)N)C(=O)N[C@H](C(N)=O)[C@@H](C)CC)CC1) [JAL-0653]
5,≤ 15 µM,"Ac-[Tyr(3-I)][GABA][Aoc(2)]AFRL[Hyp][NMeL]DRI-NH2 (also: lower-case ala, arg: meaning not given here) [JAL-1432]"
6,≤ 1 µM,"Octanoyl-AFLL[Hyp][NMeL]DR[Deg]-NH2 (also: lower-case ala, leu: meaning not given here) [JAL-1416]"
7,≤ 15 µM,XXFGLKLDRI (HELM PEPTIDE1{[CCCCCC(=O)[*:2]].[O=C(C1CCN([*:1])CC1)[*:2]].F.G.L.K.L.D.R.I.[am]}$$$$V2.0; SMILES CCCCCC(=O)N1CCC(C(=O)N[C@@H](Cc2ccccc2)C(=O)NCC(=O)N[C@@H](CC(C)C)C(=O)N[C@@H](CCCCN)C(=O)N[C@@H](CC(C)C)C(=O)N[C@@H](CC(=O)O)C(=O)N[C@@H](CCCNC(=N)N)C(=O)N[C@H](C(N)=O)[C@@H](C)CC)CC1) [JAL-0651]
8,≤ 15 µM,"[Tyr(3-I)][GABA][Aoc(2)]AFRL[Hyp][NMeL]DRI-NH2 (also: lower-case ala, arg: meaning not given here) [JAL-1431]"
9,≤ 5 µM,Octanoyl-AF[Api]L[Hyp][NMeL]DPI-NH2 (also: lower-case ala: meaning not given here) [JAL-1435]
10,≤ 1 µM,Octanoyl-[Sni]F[dL]L[Hyp][NMeL]VRI-NH2 [JAL-1398]
11,≤ 15 µM,Octanoyl-[dA]F[dR]L[Hyp][Aze]DRI-NH2 [JAL-1393]
12,≤ 15 µM,Octanoyl-[dA]F[dR]L[Hyp][Eat]DRI-NH2 [JAL-1394]
13,≤ 1 µM,Octanoyl-[dA]F[Apc(Et)]E[dT]L[Hyp][NMeL]DRI-NH2 [JAL-1407]
14,≤ 5 µM,"Octanoyl-AFLL[Hyp][NMeL]DPI-NH2 (also: lower-case ala, leu: meaning not given here) [JAL-1418]"
15,≤ 1 µM,"Octanoyl-AFLL[Hyp][NMeL]D[NMeR]I-NH2 (also: lower-case ala, leu: meaning not given here) [JAL-1417]"
16,≤ 5 µM,Octanoyl-[dA]F[Apc(Ae)]A[dE]L[Hyp][NMeL]DRI-NH2 [JAL-1408]
17,≤ 5 µM,Octanoyl-[Sni]F[dL]L[Pro(trans-4-NH2)][NMeL]VRI-NH2 [JAL-1404]

# Source: US9187525B2, “Methods of treating ophthalmic diseases using NPR-B agonists” (Shire Orphan Therapies GmbH, dated 2015)
